± gives the uncertainty stated by the source.
Test: amyloid nucleation score (Sup35N fusion, yeast selection) (log enrichment); library NNK3; higher = more nucleation; inactive = no reads after selection
Summary of the method: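 In psi-negative yeast, Sup35N fusions carrying peptides of 20 random codons were induced with 100 μM copper sulfate for 24 hours. The cells then grew 7 days at 30°C on medium lacking adenine and uracil, and plasmid inserts from input and output were Illumina-sequenced, excluding sequences with under 100 input reads. Nucleation score is the DiMSum log enrichment of output over input reads, centred on the mode score of non-aggregating sequences.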

Substance | amyloid nucleation score
SKFSCIRSYYG | inactive
SKGGADNNWLVIDCPLNRRM | inactive
SKGICNFMCVL | 3.37 ± 0.077
SKHYN | inactive
SKKSDF | inactive
SKLCVVTFLCIQTCQYDLCV | inactive
SKLGYRRVSKCIGTDFN | inactive
SKNDIQARGSRKKCSNKGAK | inactive
SKPACRRFTLNDQKRKVEWI | inactive
SKPNMAELKLHFTGYPHPAK | inactive
SKRVIVWVTSLYWDV | inactive
SKSYVEF | inactive
SKVGSWYDAT | -0.506 ± 1.1
SLAINSYVCMYIHFQTTMRD | inactive
SLETMFMEKKRTSPNMVMLW | -0.42 ± 0.73
SLGFGIDSSYGLLTGYKFFT | 0.264 ± 0.21
SLGISKSG | inactive
SLIFFL | 1.35 ± 0.12
SLLFFRWDIWTVASGYD | inactive
SLLKINGGVIHYFSCRMEDW | 0.684 ± 0.34
SLLLTSWESVYIMRGLDRTI | 0.086 ± 0.42
SLMLLRRTAVRPHWWKLRPN | inactive

Substance | amyloid nucleation score
SLMNPNFFLHMVIRTNCYLK | inactive
SLNNSMVWKYH | inactive
SLPCSKCAVKLFL | inactive
SLPRV | inactive
SLRVLWCIRLKCSCLCWISG | inactive
SLSATCLCTVMSTNFIFYVF | 0.509 ± 0.41
SLSIASVWWDPGTHVFLALW | inactive
SLSSRGLYLSKDLMPILNYR | inactive
SLTFTLCRVHGGRESRVSLG | 0.319 ± 0.81
SLVAYLIEGIFNLWEALMDR | inactive
SLVLNSMMRTTNKNGNEGYV | inactive
SLVSYRLWIYDLWMTWL | inactive
SMACCGLSIAATNAPKVPKV | 0.498 ± 0.34
SMATDAWGTTKF | inactive
SMATNCTDR | inactive
SMFTAIASTTFNLQSLYLM | inactive
SMGSPVNVIWTSSYS | inactive
SMHYAQYIIIYWRMSSRVYD | inactive
SMLAPCHELEHMGRCGECSN | inactive
SMLSAIMGSS | inactive
SMLSMLTLRSLSLTFMKRNQ | 0.626 ± 0.32
SMQVQMTWLCDRSSLGQRNQ | 1.6 ± 0.11

Substance | amyloid nucleation score
SMRQSFQWCYHSAECYVHSG | 0.337 ± 0.31
SNASQLY | inactive
SNCRCIEGVFYHTYNQKAVR | inactive
SNFAMGVRLY | inactive
SNFVVSNPISSRGTMNIRII | inactive
SNHSRYYRNHDVFWYNIEVG | inactive
SNLFTGYGELFVPGS | inactive
SNQLNAN | inactive
SNRIYHVVFID | 1.89 ± 0.1
SNRKPWARHIVDRACM | -0.922 ± 1.9
SNRYVCLAYYFSE | 0.154 ± 0.49
SNTHLYCLMFRLPCRILDRK | inactive
SNVNTAWKRFTRI | inactive
SNVPYKDLQTLWCSHPVSVV | inactive
SNVTRMVRFFWVEGPTEYWY | inactive
SNYGTYRRNSPHSCLRTFWR | inactive
SPAQDQLAVRWVGVDRMMWW | -0.434 ± 0.86
SPDDVDYFFLVRNDRMCAYV | inactive
SPDGIGTMRGNFLGTPWRCR | inactive
SPFVCHEPLLRVVWSSTCSF | inactive
SPGYINGNGSSVRSVFNL | inactive
SPLTARMADRRDTA | -0.134 ± 1.4
